Our source for the Km and k cat values is ChEMBL document CHEMBL1132473.

Series [1] relates to N[C@H]1C=C[C@@H](C(=O)O)C1.
In series [2] the test system is N[C@@H]1C=C[C@@H](C(=O)O)C1.
The test system of series [3] is N[C@@H]1C=C[C@H](C(=O)O)C1.
Description: (§1) Compound was tested for the inhibition of Gamma-amino-N-butyrate transaminase (GABA-AT)
Series [4] addresses 4-aminobutyrate aminotransferase, mitochondrial (Sus scrofa) (UniProt P80147).
Description: as §1

Chain of 4-aminobutyrate aminotransferase, mitochondrial (Sus scrofa), P80147 (P80147 whole entry): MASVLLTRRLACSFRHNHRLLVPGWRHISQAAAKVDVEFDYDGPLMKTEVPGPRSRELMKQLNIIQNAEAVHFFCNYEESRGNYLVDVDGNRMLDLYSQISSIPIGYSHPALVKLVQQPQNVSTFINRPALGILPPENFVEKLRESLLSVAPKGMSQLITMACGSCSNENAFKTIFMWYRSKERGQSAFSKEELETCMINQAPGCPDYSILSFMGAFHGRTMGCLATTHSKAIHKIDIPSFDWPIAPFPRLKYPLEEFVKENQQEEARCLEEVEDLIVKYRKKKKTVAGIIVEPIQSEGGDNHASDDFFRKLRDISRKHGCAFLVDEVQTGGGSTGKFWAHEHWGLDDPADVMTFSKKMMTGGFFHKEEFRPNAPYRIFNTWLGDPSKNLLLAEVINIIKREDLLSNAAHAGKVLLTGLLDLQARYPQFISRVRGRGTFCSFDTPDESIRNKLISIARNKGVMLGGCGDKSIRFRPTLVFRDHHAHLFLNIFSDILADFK
Chain of 4-aminobutyrate aminotransferase, mitochondrial (Sus scrofa) (P80147 whole entry): as above
Description for NC1C=CC(C(=O)O)C1: as §1
Description for N[C@@H]1CC=C(C(=O)O)C1: as §1

As for “4-aminobutyrate aminotransferase, mitochondrial (Sus scrofa), P80147”, the Km (usually the substrate concentration at which the rate is half of its maximum) was “No turn over” in series [1]; “No turn over” with N[C@H]1CC=C(C(=O)O)C1; “No turn over” in series [2]; 100 µM in series [3]; 2300 µM with NC1C=CC(C(=O)O)C1; 1600 µM in the series on N[C@@H]1CC=C(C(=O)O)C1.

As to `NC1C=CC(C(=O)O)C1` (racemic), the k cat in series [4] was determined as 40 min⁻¹.

`N[C@@H]1C=C[C@H](C(=O)O)C1` came in with a k cat in series [4] of 11.7 min⁻¹.

Compound `N[C@@H]1CC=C(C(=O)O)C1` registered a k cat in series [4] of 37.5 min⁻¹.
